Data on 10 proteins can be found in patent US11491212.

To fix the notation:
B1: FIXa-R338E/R403E/E410N (mature FIX numbering) (protein)
chain 1: not shown
chain 2: not shown
B2: FIXa-Y155F/R338E/R403E/E410N (mature FIX numbering) (protein)
chain 1: not shown
chain 2: not shown
B3: FIXa-K228N/247N/N249S/R318Y/R338E/T343R/E410N (protein)
chain 1: not shown
chain 2: not shown
B4: FIXa-K228N/K247N/N249S/R318Y/R338E/T343R/R403E (protein)
chain 1: not shown
chain 2: not shown
B5: FIXa-K293E/R338E/R403E (mature FIX numbering) (protein)
chain 1: not shown
chain 2: not shown
B6: FIXa-Y155F/R318Y/T343R/E410N (protein)
chain 1: not shown
chain 2: not shown
B7: FIXa-R318Y/T343R/E410N (protein)
chain 1: not shown
chain 2: not shown
B8: FIXa-K228N/R318Y/R338E/T343R/R403E/E410N (protein)
chain 1: not shown
chain 2: not shown
B9: FIXa-K293A/R338A/R403A (mature FIX numbering) (protein)
chain 1: not shown
chain 2: not shown
B10: FIXa-K228N/K247N/N249S/R318Y/T343R/R403E/E410N (protein)
chain 1: not shown
chain 2: not shown

In this data set the target is Factor X (FX), P00742.
Sequence of Factor X (FX), P00742 (P00742 whole entry, looked up): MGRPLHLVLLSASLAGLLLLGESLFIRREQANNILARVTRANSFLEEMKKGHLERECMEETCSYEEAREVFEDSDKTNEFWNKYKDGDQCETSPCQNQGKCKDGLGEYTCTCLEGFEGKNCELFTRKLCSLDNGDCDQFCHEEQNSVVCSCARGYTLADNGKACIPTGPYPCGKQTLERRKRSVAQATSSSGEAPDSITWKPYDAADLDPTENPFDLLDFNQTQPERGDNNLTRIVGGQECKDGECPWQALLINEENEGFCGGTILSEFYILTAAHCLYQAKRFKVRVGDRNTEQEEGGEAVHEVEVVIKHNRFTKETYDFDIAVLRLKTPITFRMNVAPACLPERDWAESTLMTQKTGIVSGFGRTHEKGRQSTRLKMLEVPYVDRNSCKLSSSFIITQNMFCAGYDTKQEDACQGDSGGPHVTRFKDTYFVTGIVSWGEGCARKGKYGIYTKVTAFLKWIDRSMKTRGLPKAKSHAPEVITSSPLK
Consider B1, for which the “% of WT kcat/KM” value is 411%.

A word on the kcat/KM: it is the turnover number divided by the Michaelis constant. B2: the “% of WT kcat/KM” value is listed as 401% and the kcat/KM came to 1.8e+08 M⁻¹ s⁻¹.

Take B3: the KM (nM), FX activation by FIXa in the Xase complex (FVIIIa, PC/PS vesicles, Ca2+), indirect fluorogenic assay with Spectrafluor FXa is 38.1 nM.

As for B4, the KM (nM), FX activation by FIXa in the Xase complex (FVIIIa, PC/PS vesicles, Ca2+), indirect fluorogenic assay with Spectrafluor FXa came to 44.4 nM.

Consider B5, for which the “% of WT kcat/KM” value worked out at 36%.

With B6, the KM (nM), FX activation by FIXa in the Xase complex (FVIIIa, PC/PS vesicles, Ca2+), indirect fluorogenic assay with Spectrafluor FXa was determined as 40.3 nM.

Consider B7, for which the KM (nM), FX activation by FIXa in the Xase complex (FVIIIa, PC/PS vesicles, Ca2+), indirect fluorogenic assay with Spectrafluor FXa was found to be 52.3 nM.

For the protein B8, the KM (nM), FX activation by FIXa in the Xase complex (FVIIIa, PC/PS vesicles, Ca2+), indirect fluorogenic assay with Spectrafluor FXa turned out to be 40.3 nM.

Consider B9, for which the “% of WT kcat/KM” value was 53%.

B10: the KM (nM), FX activation by FIXa in the Xase complex (FVIIIa, PC/PS vesicles, Ca2+), indirect fluorogenic assay with Spectrafluor FXa is 125 nM.
